Reference: patent publication US20070286806A1, “Methods and Compositions for Modulating a Steroid Receptor” (Mount Sinai Hospital, priority 2004, published 2007)

Columns and labels:
Type in all cases: cell-based
PRA = biological target: T1, PRA (Homo sapiens, UniProt P06401); test: Transactivation of progesterone responsive promoters (3xPRE-Luc, MMTV-Luc) by PRA in SHM cells; conditions: 10 nM progesterone, increasing dose of His-PSF vector
T1 construct: expressed in transfected cells; host or cells: SHM (Syrian hamster myocyte) cells
T1 sequence (P06401 1-769 isoform P06401-2): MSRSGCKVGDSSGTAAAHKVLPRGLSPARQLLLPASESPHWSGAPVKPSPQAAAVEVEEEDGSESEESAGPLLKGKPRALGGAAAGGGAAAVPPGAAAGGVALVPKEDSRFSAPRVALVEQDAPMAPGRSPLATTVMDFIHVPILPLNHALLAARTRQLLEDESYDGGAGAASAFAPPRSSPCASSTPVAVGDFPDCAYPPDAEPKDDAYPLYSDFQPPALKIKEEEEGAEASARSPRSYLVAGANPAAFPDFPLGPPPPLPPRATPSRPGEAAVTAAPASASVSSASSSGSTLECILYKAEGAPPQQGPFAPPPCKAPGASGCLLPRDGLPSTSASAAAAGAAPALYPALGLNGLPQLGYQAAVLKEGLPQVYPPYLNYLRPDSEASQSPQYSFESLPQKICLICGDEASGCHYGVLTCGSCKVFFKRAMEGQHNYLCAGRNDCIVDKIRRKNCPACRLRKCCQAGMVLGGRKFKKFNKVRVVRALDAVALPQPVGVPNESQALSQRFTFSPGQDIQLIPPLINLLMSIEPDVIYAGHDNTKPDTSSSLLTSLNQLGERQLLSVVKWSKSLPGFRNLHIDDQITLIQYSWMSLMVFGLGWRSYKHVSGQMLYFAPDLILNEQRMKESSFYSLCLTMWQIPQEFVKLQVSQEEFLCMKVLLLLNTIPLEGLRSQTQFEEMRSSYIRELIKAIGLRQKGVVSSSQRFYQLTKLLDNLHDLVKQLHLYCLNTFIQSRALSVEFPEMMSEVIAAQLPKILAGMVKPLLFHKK
Procedure: (§1) FIG. 4. PSF inhibit transactivation of PR but not estrogen receptor (ER). (A) SHM cells were transient cotransfected with PRA or PRB expression vectors with or without increasing dose (0.05, 0.1 and 0.2 μg) of His-PSF, together with 3×PRE (upper) or MMTV (lower) luciferase reporter vector. Four hours after transfection, culture medium was replaced with fresh DMEM containing 10 nM progesterone and the incubation continued for at least 30 hours. (B) SHM cells were transiently cotransfected with ERα or ERβ expression vector with (0.2 μg) or without His-PSF, together with 3×ERE luciferase reporter vector. Four hours after transfection, culture medium was replaced with fresh DMEM with (solid bar) or without (empty bar) 10 nM estrodial and incubation continued for at least 30 hours. Luciferase activity was measured and normalized by β-galatosidase activity. […]
(§2) For immunoprecipitation of the endogenous PR and PSF, T47D cells cultured in 150 mm dishes were lysed in 800 μl NETN buffer containing 150 mM NaCl plus protease inhibitor cocktail. […] Gels were treated with Enhancer (NEN, Boston, US) dried and analyzed by autoradiography. • Cell culture and transient transfection: SHM cells and 293T cells were maintained in DMEM plus 5% FCS (Sigma) as described before (22). […] Luciferase activity was determined by using the luciferin reagent (Promega) according to manufacture's protocol. […]

ERβ = biological target: T2, ERβ (Homo sapiens, UniProt Q92731); test: ERβ transactivation, 3xERE luciferase reporter in SHM cells; conditions: 3xERE promoter
T2 construct: expressed in transfected cells; host or cells: SHM (Syrian hamster myocyte) cells
Procedure: as §1, §2

PR protein = PR protein levels on over-expression of PSF in 293T cells; conditions: over-expression in 293T cells

T2 sequence (Q92731 whole entry, species assumed): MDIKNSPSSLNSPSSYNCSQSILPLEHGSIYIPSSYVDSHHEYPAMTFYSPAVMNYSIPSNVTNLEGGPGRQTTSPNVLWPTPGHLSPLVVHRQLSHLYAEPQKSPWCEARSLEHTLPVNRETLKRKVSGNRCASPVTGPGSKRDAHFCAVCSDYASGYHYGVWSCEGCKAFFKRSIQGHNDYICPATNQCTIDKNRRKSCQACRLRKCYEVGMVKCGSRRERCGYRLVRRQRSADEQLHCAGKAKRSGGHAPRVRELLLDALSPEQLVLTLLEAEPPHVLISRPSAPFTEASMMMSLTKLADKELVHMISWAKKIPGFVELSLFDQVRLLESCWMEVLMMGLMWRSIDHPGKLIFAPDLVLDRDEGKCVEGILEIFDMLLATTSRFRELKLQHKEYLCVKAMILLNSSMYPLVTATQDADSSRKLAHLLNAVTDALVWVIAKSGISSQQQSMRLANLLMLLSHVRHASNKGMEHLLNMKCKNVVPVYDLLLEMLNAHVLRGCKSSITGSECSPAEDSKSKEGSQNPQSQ

B1: polypyrimidine tract binding protein-associated splicing factor (protein)
chain: MSRDRFRSRGGGGGGFHRRGGGGGRGGLHDFRSPPPGMGLNQNRGPMGPGPGQSGPKPPIPPPPPHQQQQQPPPQQPPPQQPPPHQPPPHPQPHQQQQPPPPPQDSSKPVVAQGPGPAPGVGSAPPASSSAPPATPPTSGAPPGSGPGPTPTPPPAVTSAPPGAPPPTPPSSGVPTTPPQAGGPPPPPAAVPGPGPGPKQGPGPGGPKGGKMPGGPKPGGGPGLSTPGGHPKPPHRGGGEPRGGRQHHPPYHQQHHQGPPPGGPGGRSEEKISDSEGFKANLSLLRRPGEKTYTQRCRLFVGNLPADITEDEFKRLFAKYGEPGEVFINKGKGFGFIKLESRALAEIAKAELDDTPMRGRQLRVRFATHAAALSVRNLSPYVSNELLEEAFSQFGPIERAVVIVDDRGRSTGKGIVEFASKPAARKAFERCSEGVFLLTTTPRPVIVEPLEQLDDEDGLPEKLAQKNPMYQKERETPPRFAQHGTFEYEYSQRWKSLDEMEKQQREQVEKNMKDAKDKLESEMEDAYHEHQANLLRQDLMRRQEELRRMEELHNQEMQKRKEMQLRQEEERRRREEEMMIRQREMEEQMRRQREESYSRMGYMDPRERDMRMGGGGAMNMGDPYGSGGQKFPPLGGGGGIGYEANPGVPPATMSGSMMGSDMRTERFGQGGAGPVGGQGPRGMGPGTPAGYGRGREEYEGPNKKPRF
notes: expressed from transfected His-PSF vector or in vitro translated
PRA transactivation of MMTV and 3xPRE promoters (PRA): potently inhibited | inhibitory effects on ERβ (ERβ): not observed | PR protein levels (PR protein): reduced PR protein levels
